In paper PMC6717114 (Biochemical Journal, 2019):

Target: Mouse Pcdh15 EC1-2 wild-type (mouse, UniProt Q99PJ1-18 27-259)
Assay: single-molecule force spectroscopy

koff: 0.0045 s⁻¹
B1: Mouse Cdh23 EC1-2 wild-type (domain or fragment, UniProt Q99PF4 24-228, looked up)
chain: QVNRLPFFTNHFFDTYLLISEDTPVGSSVTQLLARDMDNDPLVFGVSGEEASRFFAVEPDTGVVWLRQPLDRETKSEFTVEFSVSDHQGVITRKVNIQVGDVNDNAPTFHNQPYSVRIPENTPVGTPIFIVNATDPDLGAGGSVLYSFQPPSPFFAIDSARGIVTVIQELDYEVTQAYQLTVNATDQDKTRPLSTLANLAIIITD
